B1: Nkd1-BirA* [murine] / DVL2 (endogenous) [human (endogenous in Flp-In-T-REx-293)] (parent)
chain 1: MGKLHSKPAAVCKRRESPEGDSFAVSAAWARKGIEEWIGRQRCPGSVSGPRQLRLAGTVGRGTRELVGDTSREALGEEDEDDFPLEVALPPEKIDSLGSGDEKRMERLSEPGQASKKQLKFEELQCDVSVEEDSRQEWTFTLYDFDNNGKVTREDITSLLHTIYEVVDSSVNHSPTSSKTLRVKLTVAPDGSQSKRSVLFNHTDLQSTRPRADTKPAEELRGWEKKQRAPLRFQGDSHLEQPDCYHHCVDENIERRNHYLDLAGIENYTSQFGPGSPSVAQKSELPPRISNPTRSRSHEPEAAHIPHRRPQGVDPGSFHLLDTPFAKASELQQRLRGTQDGSKHFVRSPKAQGKNMGMGHGARGARSKPPLVPTTHTVSPSAHLATSPALLPTLAPLGHKKHKHRAKESQASCRGLQGPLAAGGSTVMGREQVRELPAVVVYESQAGQAVQRHEHHHHHEHHHHYHHFYQP
chain 2: MAGSSTGGGGVGETKVIYHLDEEETPYLVKIPVPAERITLGDFKSVLQRPAGAKYFFKSMDQDFGVVKEEISDDNARLPCFNGRVVSWLVSSDNPQPEMAPPVHEPRAELAPPAPPLPPLPPERTSGIGDSRPPSFHPNVSSSHENLEPETETESVVSLRRERPRRRDSSEHGAGGHRTGGPSRLERHLAGYESSSTLMTSELESTSLGDSDEEDTMSRFSSSTEQSSASRLLKRHRRRRKQRPPRLERTSSFSSVTDSTMSLNIITVTLNMEKYNFLGISIVGQSNERGDGGIYIGSIMKGGAVAADGRIEPGDMLLQVNDMNFENMSNDDAVRVLRDIVHKPGPIVLTVAKCWDPSPQAYFTLPRNEPIQPIDPAAWVSHSAALTGTFPAYPGSSSMSTITSGSSLPDGCEGRGLSVHTDMASVTKAMAAPESGLEVRDRMWLKITIPNAFLGSDVVDWLYHHVEGFPERREARKYASGLLKAGLIRHTVNKITFSEQCYYVFGDLSGGCESYLVNLSLNDNDGSSGASDQDTLAPLPGATPWPLLPTFSYQYPAPHPYSPQPPPYHELSSYTYGGGSASSQHSEGSRSSGSTRSDGGAGRTGRPEERAPESKSGSGSESEPSSRGGSLRRGGEASGTSDGGPPPSRGSTGGAPNLRAHPGLHPYGPPPGMALPYNPMMVVMMPPPPPPVPPAVQPPGAPPVRDLGSVPPELTASRQSFHMAMGNPSEFFVDVM
B2: Nkd1-BirA* [murine] / NBR1 [human (endogenous in Flp-In-T-REx-293)] (parent)
chain 1: B1 chain 1
chain 2: MEPQVTLNVTFKNEIQSFLVSDPENTTWADIEAMVKVSFDLNTIQIKYLDEENEEVSINSQGEYEEALKMAVKQGNQLQMQVHEGHHVVDEAPPPVVGAKRLAARAGKKPLAHYSSLVRVLGSDMKTPEDPAVQSFPLVPCDTDQPQDKPPDWFTSYLETFREQVVNETVEKLEQKLHEKLVLQNPSLGSCPSEVSMPTSEETLFLPENQFSWHIACNNCQRRIVGVRYQCSLCPSYNICEDCEAGPYGHDTNHVLLKLRRPVVGSSEPFCHSKYSTPRLPAALEQVRLQKQVDKNFLKAEKQRLRAEKKQRKAEVKELKKQLKLHRKIHLWNSIHGLQSPKSPLGRPESLLQSNTLMLPLQPCTSVMPMLSAAFVDENLPDGTHLQPGTKFIKHWRMKNTGNVKWSADTKLKFMWGNLTLASTEKKDVLVPCLKAGHVGVVSVEFIAPALEGTYTSHWRLSHKGQQFGPRVWCSIIVDPFPSEESPDNIEKGMISSSKTDDLTCQQEETFLLAKEERQLGEVTEQTEGTAACIPQKAKNVASERELYIPSVDLLTAQDLLSFELLDINIVQELERVPHNTPVDVTPCMSPLPHDSPLIEKPGLGQIEEENEGAGFKALPDSMVSVKRKAENIASVEEAEEDLSGTQFVCETVIRSLTLDAAPDHNPPCRQKSLQMTFALPEGPLGNEKEEIIHIAEEEAVMEEEEDEEDEEEEDELKDEVQSQSSASSEDYIIILPECFDTSRPLGDSMYSSALSQPGLERGAEGKPGVEAGQEPAEAGERLPGGENQPQEHSISDILTTSQTLETVPLIPEVVELPPSLPRSSPCVHHHGSPGVDLPVTIPEVSSVPDQIRGEPRGSSGLVNSRQKSYDHSRHHHGSSIAGGLVKGALSVAASAYKALFAGPPVTAQPIISEDQTAALMAHLFEMGFCDRQLNLRLLKKHNYNILQVVTELLQLNNNDWYSQRY
B3: Nkd1-BirA* [murine] / VANGL1 [human (endogenous in Flp-In-T-REx-293)] (parent)
chain 1: B1 chain 1
chain 2: MDTESTYSGYSYYSSHSKKSHRQGERTRERHKSPRNKDGRGSEKSVTIQPPTGEPLLGNDSTRTEEVQDDNWGETTTAITGTSEHSISQEDIARISKDMEDSVGLDCKRYLGLTVASFLGLLVFLTPIAFILLPPILWRDELEPCGTICEGLFISMAFKLLILLIGTWALFFRKRRADMPRVFVFRALLLVLIFLFVVSYWLFYGVRILDSRDRNYQGIVQYAVSLVDALLFIHYLAIVLLELRQLQPMFTLQVVRSTDGESRFYSLGHLSIQRAALVVLENYYKDFTIYNPNLLTASKFRAAKHMAGLKVYNVDGPSNNATGQSRAMIAAAARRRDSSHNELYYEEAEHERRVKKRKARLVVAVEEAFIHIQRLQAEEQQKAPGEVMDPREAAQAIFPSMARALQKYLRITRQQNYHSMESILQHLAFCITNGMTPKAFLERYLSAGPTLQYDKDRWLSTQWRLVSDEAVTNGLRDGIVFVLKCLDFSLVVNVKKIPFIILSEEFIDPKSHKFVLRLQSETSV

One test covers variants of B1. As to the kind of experiment: BioID proximity labeling (mass spectrometry). Particulars: with DVL2 (endogenous) [human (endogenous in Flp-In-T-REx-293)]; +Wnt3a.
Regarding chain 1 MAKLHSKPAAVCKRRESPEGDSFAVSAAWARKGIEEWIGRQRCPGSVSGPRQLRLAGTVGRGTRELVGDTSREALGEEDEDDFPLEVALPPEKIDSLGSGDEKRMERLSEPGQASKKQLKFEELQCDVSVEEDSRQEWTFTLYDFDNNGKVTREDITSLLHTIYEVVDSSVNHSPTSSKTLRVKLTVAPDGSQSKRSVLFNHTDLQSTRPRADTKPAEELRGWEKKQRAPLRFQGDSHLEQPDCYHHCVDENIERRNHYLDLAGIENYTSQFGPGSPSVAQKSELPPRISNPTRSRSHEPEAAHIPHRRPQGVDPGSFHLLDTPFAKASELQQRLRGTQDGSKHFVRSPKAQGKNMGMGHGARGARSKPPLVPTTHTVSPSAHLATSPALLPTLAPLGHKKHKHRAKESQASCRGLQGPLAAGGSTVMGREQVRELPAVVVYESQAGQAVQRHEHHHHHEHHHHYHHFYQP [chain 1 G2A], the response (unweighted spectral counts) came to 303.

The next test covers variants of B2. Put plainly: BioID proximity labeling (mass spectrometry). To be noted: with NBR1 [human (endogenous in Flp-In-T-REx-293)]; +Wnt3a.
On to chain 1 MAKLHSKPAAVCKRRESPEGDSFAVSAAWARKGIEEWIGRQRCPGSVSGPRQLRLAGTVGRGTRELVGDTSREALGEEDEDDFPLEVALPPEKIDSLGSGDEKRMERLSEPGQASKKQLKFEELQCDVSVEEDSRQEWTFTLYDFDNNGKVTREDITSLLHTIYEVVDSSVNHSPTSSKTLRVKLTVAPDGSQSKRSVLFNHTDLQSTRPRADTKPAEELRGWEKKQRAPLRFQGDSHLEQPDCYHHCVDENIERRNHYLDLAGIENYTSQFGPGSPSVAQKSELPPRISNPTRSRSHEPEAAHIPHRRPQGVDPGSFHLLDTPFAKASELQQRLRGTQDGSKHFVRSPKAQGKNMGMGHGARGARSKPPLVPTTHTVSPSAHLATSPALLPTLAPLGHKKHKHRAKESQASCRGLQGPLAAGGSTVMGREQVRELPAVVVYESQAGQAVQRHEHHHHHEHHHHYHHFYQP [chain 1 G2A], for which the response (unweighted spectral counts) was found to be 24.

Variants of B3 are the subject of a further test. As to the kind of experiment: BioID proximity labeling (mass spectrometry). To be noted: with VANGL1 [human (endogenous in Flp-In-T-REx-293)]; +Wnt3a.
Consider chain 1 MAKLHSKPAAVCKRRESPEGDSFAVSAAWARKGIEEWIGRQRCPGSVSGPRQLRLAGTVGRGTRELVGDTSREALGEEDEDDFPLEVALPPEKIDSLGSGDEKRMERLSEPGQASKKQLKFEELQCDVSVEEDSRQEWTFTLYDFDNNGKVTREDITSLLHTIYEVVDSSVNHSPTSSKTLRVKLTVAPDGSQSKRSVLFNHTDLQSTRPRADTKPAEELRGWEKKQRAPLRFQGDSHLEQPDCYHHCVDENIERRNHYLDLAGIENYTSQFGPGSPSVAQKSELPPRISNPTRSRSHEPEAAHIPHRRPQGVDPGSFHLLDTPFAKASELQQRLRGTQDGSKHFVRSPKAQGKNMGMGHGARGARSKPPLVPTTHTVSPSAHLATSPALLPTLAPLGHKKHKHRAKESQASCRGLQGPLAAGGSTVMGREQVRELPAVVVYESQAGQAVQRHEHHHHHEHHHHYHHFYQP [chain 1 G2A], for which the response (unweighted spectral counts) was 7.

Values taken from PMC7581431.
